Data from US20070014817.

What was measured:
[1] = tested on: Plasmodium berghei Apical Membrane Antigen 1 (PbAMA1)
[2] = tested on: Plasmodium berghei Merozoite Surface Protein 1, 42 kDa form (PbMSP1-42)

Plasmodium berghei subtilisin-like protease SUB2 (PbSUB2), TrimycDuoXpress (TmDX) epitope-tagged, as expressed in WT-TmDX1 and SPA-TmDX1 recombinant parasites
ratio of HSP70-corrected PbAMA1-CT15 maturation product, SPA-TmDX1 (PbSUB2 over-expressing) versus WT-TmDX1 merozoite extracts, Western blot, 6.5 x 10^7 parasites (fold (ratio of corrected amounts)) [1]: 9.7
ratio of HSP70-corrected PbMSP1-19 maturation product, SPA-TmDX1 (PbSUB2 over-expressing) versus WT-TmDX1 merozoite extracts, Western blot, 1.3 x 10^6 parasites (fold (ratio of corrected amounts)) [2]: 2.9
ratio of HSP70-corrected PbMSP1-19 maturation product, SPA-TmDX1 (PbSUB2 over-expressing) versus WT-TmDX1 merozoite extracts, Western blot, 6.5 x 10^6 parasites (fold (ratio of corrected amounts)) [2]: 2.5
ratio of HSP70-corrected PbMSP1-19 maturation product, SPA-TmDX1 (PbSUB2 over-expressing) versus WT-TmDX1 merozoite extracts, Western blot, 13 x 10^6 parasites (fold (ratio of corrected amounts)) [2]: 2.1
